# According to patent US20190002841A1:
# Key:
# [1] = target: AAV3B capsid (vector AAV2/3B.CB7.CI.ffluciferase.RBG) (Adeno-associated virus 3B); assay: AVB Sepharose HiTrap column, AAV3B against AAV3B-NKDKLN
# [2] = target: AAV3B-NKDKLN capsid (AAV3B with SPAKFA replaced by NKDKLN of AAV9) (Adeno-associated virus 3B); assay: as above
# [3] = target: AAV3B capsid (vector AAV2/3B.CB7.CI.ffluciferase.RBG) (Adeno-associated virus 3B); assay: AVB Sepharose HiTrap column, share washed off in wash 1
# [4] = target: AAV3B-NKDKLN capsid (AAV3B with SPAKFA replaced by NKDKLN of AAV9) (Adeno-associated virus 3B); assay: as above
# [5] = target: AAV3B capsid (vector AAV2/3B.CB7.CI.ffluciferase.RBG) (Adeno-associated virus 3B); assay: AVB Sepharose HiTrap column, unbound share in flow-through
# [6] = target: AAV3B-NKDKLN capsid (AAV3B with SPAKFA replaced by NKDKLN of AAV9) (Adeno-associated virus 3B); assay: as above
# [7] = target: AAVrh64R1 capsid (vectors AAV2/rh.64R1.CMV.PI.EGFP.WPRE.bGH and rh.64R1 with CB7.CI.ffluciferase.RBG) (Adeno-associated virus rh.64R1); assay: AVB Sepharose HiTrap column, qPCR of fractions; mix rh.64R1+rh.10
# [8] = target: AAV3B capsid (vector AAV2/3B.CB7.CI.ffluciferase.RBG) (Adeno-associated virus 3B); assay: AVB Sepharose HiTrap column, share washed off in wash 2 (1 M NaCl)
# [9] = target: AAV3B-NKDKLN capsid (AAV3B with SPAKFA replaced by NKDKLN of AAV9) (Adeno-associated virus 3B); assay: as above
# [10] = target: AAVrh10 capsid (vector AAV2/rh.10.CMV.PI.Cre.RBG) (Adeno-associated virus rh.10); assay: AVB Sepharose HiTrap column, qPCR of fractions; average of two runs
# [11] = target: AAV8 capsid (vectors AAV2/8.CMV.ffluciferase.SV40 and AAV8 with CB7.CI.ffluciferase.RBG) (Adeno-associated virus 8); assay: AVB Sepharose HiTrap column, qPCR of fractions; mix AAV8+hu.37+rh.10
# [12] = target: AAVhu37 capsid (vector AAV2/hu.37.TBG.EGFP.bGH) (Adeno-associated virus hu.37); assay: as above
# [13] = target: AAV3B capsid (vector AAV2/3B.CB7.CI.ffluciferase.RBG) (Adeno-associated virus 3B); assay: AVB Sepharose HiTrap column, qPCR of fractions; clarified AAV3B product
# [14] = target: AAV8 capsid (vectors AAV2/8.CMV.ffluciferase.SV40 and AAV8 with CB7.CI.ffluciferase.RBG) (Adeno-associated virus 8); assay: AVB Sepharose HiTrap column, clarified supernatant, wild type against SPAKFA mutant
# [15] = target: AAV8-SPAKFA capsid (AAV8 with NQSKLN replaced by SPAKFA) (Adeno-associated virus 8); assay: as above
# [16] = target: AAV9 capsid (vector with CB7.CI.ffluciferase.RBG) (Adeno-associated virus 9); assay: as above
# [17] = target: AAV9-SPAKFA capsid (AAV9 with NKDKLN replaced by SPAKFA) (Adeno-associated virus 9); assay: as above
# [18] = target: AAVrh64R1 capsid (vectors AAV2/rh.64R1.CMV.PI.EGFP.WPRE.bGH and rh.64R1 with CB7.CI.ffluciferase.RBG) (Adeno-associated virus rh.64R1); assay: as above
# [19] = target: rh.64R1-SPAKFA capsid (rh.64R1 with NQAKLN replaced by SPAKFA) (Adeno-associated virus rh.64R1); assay: as above
substance,measurement,setting,value
AVB Sepharose High Performance affinity resin ligand (14 kD fragment from a single chain llama antibody expressed in yeast) (VHH),elution fraction yield (%),[1],98%
same,elution fraction yield (%),[2],87%
same,% of vector in the wash 1 (W1) fraction,[3],0%
same,% of vector in the wash 1 (W1) fraction,[4],0.1%
same,% of vector in the flow-through (FT) fraction,[5],1.3%
same,% of vector in the flow-through (FT) fraction,[6],8.2%
same,% of loaded vector genome in the elution fraction,[7],22%
same,% of vector in the wash 2 (W2) fraction,[8],0.3%
same,% of vector in the wash 2 (W2) fraction,[9],4.6%
same,% of loaded vector genome in the elution fraction,[10],84%
same,% of loaded vector genome in the elution fraction,[11],20%
same,% of loaded vector genome in the elution fraction,[12],82%
same,% of vector genomes recovered in the elution fraction,[13],98%
same,% recovery of loaded vector in the elution fraction (of total fractions),[14],30%
same,% recovery of loaded vector in the elution fraction (of total fractions),[15],93%
same,% recovery of loaded vector in the elution fraction (of total fractions),[16],0.6%
same,% recovery of loaded vector in the elution fraction (of total fractions),[17],51%
same,% recovery of loaded vector in the elution fraction (of total fractions),[18],18%
same,% recovery of loaded vector in the elution fraction (of total fractions),[19],91%
